Target: lrp8_human LRP8 (UniProt Q14114)
UniProt Q14114, sequence (Q14114 whole entry): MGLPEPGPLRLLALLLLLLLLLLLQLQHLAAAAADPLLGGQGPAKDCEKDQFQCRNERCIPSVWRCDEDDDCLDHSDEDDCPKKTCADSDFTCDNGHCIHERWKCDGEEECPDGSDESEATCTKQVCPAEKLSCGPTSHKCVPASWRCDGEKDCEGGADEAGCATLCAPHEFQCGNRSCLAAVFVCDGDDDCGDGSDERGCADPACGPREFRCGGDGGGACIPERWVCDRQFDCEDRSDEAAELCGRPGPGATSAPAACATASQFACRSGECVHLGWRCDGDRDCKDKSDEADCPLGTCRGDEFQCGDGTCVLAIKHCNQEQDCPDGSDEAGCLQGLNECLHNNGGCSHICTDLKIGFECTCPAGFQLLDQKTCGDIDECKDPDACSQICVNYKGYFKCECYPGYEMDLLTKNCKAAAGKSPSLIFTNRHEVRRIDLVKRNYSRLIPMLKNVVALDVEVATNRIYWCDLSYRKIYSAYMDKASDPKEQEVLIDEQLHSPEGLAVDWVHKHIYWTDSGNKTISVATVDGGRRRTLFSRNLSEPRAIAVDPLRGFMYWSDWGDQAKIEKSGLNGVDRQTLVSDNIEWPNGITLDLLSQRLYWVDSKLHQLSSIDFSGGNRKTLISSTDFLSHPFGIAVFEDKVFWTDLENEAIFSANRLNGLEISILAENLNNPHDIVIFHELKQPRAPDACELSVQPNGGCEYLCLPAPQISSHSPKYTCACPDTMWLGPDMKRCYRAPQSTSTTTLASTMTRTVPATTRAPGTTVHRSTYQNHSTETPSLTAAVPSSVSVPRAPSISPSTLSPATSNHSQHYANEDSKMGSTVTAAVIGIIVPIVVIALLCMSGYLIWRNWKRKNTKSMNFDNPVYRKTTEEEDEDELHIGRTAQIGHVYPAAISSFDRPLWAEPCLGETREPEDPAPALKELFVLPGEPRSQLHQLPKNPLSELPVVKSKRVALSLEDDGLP

Substance | effect of a mutation on the interaction
Reelin (Mus musculus), Q60841 K2360A | disrupting interaction
Reelin (Mus musculus), Q60841 K2467A | disrupting interaction strength
Reelin (Mus musculus), Q60841 K2467R | disrupting interaction strength
